Values quoted from earlier work in publication PMC5431918 (Scientific Reports, 2017).

Text: As PAC1, VPAC1 and VPAC2 mRNAs were detected in a rat insulinoma cell line with PAC1 binding prevailing over that of VPAC1 and VPAC2[23], the PAC1 receptor seemed to be a promising alternative for targeting insulinomas. The natural mammalian ligands at the PAC1 receptor are PACAP38 and the truncated form PACAP27. They bind to PAC1, ...

Q: Which Stability in plasma does the source give for “PACAP27: truncated form of PACAP38; non-selective PAC1/VPAC1/VPAC2 ligand” here?
A: Its Stability in plasma is “unstable in plasma”.

Q: With “PACAP38: natural mammalian ligand at the PAC1 receptor; non-selective PAC1/VPAC1/VPAC2 ligand” as the substance, how does the Stability in plasma read?
A: Its Stability in plasma is “unstable in plasma”.
